Data set [1] concerns material which fails to bind the ACP column (Lauroyl-CoA hydrolysis activity). Nature of the data set: Substrate hydrolysis (ACP versus CoA) by peak unbound fraction of the ACP column. In kind it is biochemical, Umbellularia californica. The settings on record: Flow-through (nonbinding) fraction; cpm of ether-extractable product. As to the method: (§1) To assay for C12 thioesterase activity the following mixture is incubated at 30° for 30 min: "buffer" comprising 7mM KH2PO4-KOH pH 8, 20% v/v glycerol, 1mM dithiothreitol (DTT), 0.1% v/v Triton X100; sample to be tested for activity in the same or similar buffer as the "extraction buffer" described in Example 2; and 5µl of ^14C-radiolabeled lauroyl-ACP substrate for a total volume of 100µl and final lauroyl-ACP concentration of 0.5µM. Lauroyl-ACP substrate is prepared according to the method of Rock et al (Methods in Enzymology (1981) 72:397-403), using ACP prepared from Escherichia coli by the method of Rock and Cronan (Methods in Enzymology (1981) 71:341-351). The laurate is radiolabeled in the carboxylate group at a specific radioactivity of 50-60µCi/µmol.
(§2) The reaction is stopped by adding 0.5ml cold (0°) 10% v/v acetic acid. […] After settling for a few minutes the upper ether layer is transferred to 5ml scintillation fluid for determination of radioactivity by liquid scintillation spectrometry. Additional ether extractions may be performed to recover remaining traces of the reaction product for more accurate quantitation of the enzyme activity if desired. The amount of ether-extracted radioactivity is a direct measure of C12-preferring acyl-ACP thioesterase activity, provided the amount of enzyme is not sufficient to hydrolyze more than about 25% of the substrate. […]

For data set [2], the system named is Bay seeds extractable C12-preferring acyl-ACP thioesterase and lauroyl-CoA hydrolysis activity. Description: Extractable hydrolysis activity at two stages of Bay seed development. In kind it is biochemical, Umbellularia californica. Particulars: cpm ether-extractable radioactivity. The protocol:
as §1
The reaction is stopped by adding 0.5ml cold (0°) 10% v/v acetic acid. The fatty acid product of the hydrolytic enzyme action is extracted away from the unhydrolyzed substrate by adding 1ml diethyl ether and mixing vigorously. After settling for a few minutes the upper ether layer is transferred to 5ml scintillation fluid for determination of radioactivity by liquid scintillation spectrometry. Additional ether extractions may be performed to recover remaining traces of the reaction product for more accurate quantitation of the enzyme activity if desired. The amount of ether-extracted radioactivity is a direct measure of C12-preferring acyl-ACP thioesterase activity, provided the amount of enzyme is not sufficient to hydrolyze more than about 25% of the substrate. With greater activity than this the relationship between radioactivity in the ether layer and the quantity of enzyme becomes markedly nonlinear. The enzyme preparation must then be diluted appropriately to bring the activity into the linear range of the assay.
Further evidence that the C12-preferring acyl-ACP thioesterase is involved in the biosynthesis of laurate groups that predominate in the Bay seeds comes from a comparison of the extractable activity of the enzyme at two different stages of seed development. As shown in the following table, Table 5, very young seeds, which contain only long-chain fatty acids and insignificant amounts of laurate, yield much less C12-preferring ACP thioesterase than older seeds that have accumulated significant amounts of laurate. Thus it appears that significant activity of this enzyme is only present when the seeds are accumulating laurate. Additionally, there appears to be much less difference in lauroyl-CoA hydrolysis activity, consistent with their being different enzymes as discussed above in Example 5.

Data set [3] concerns the target T1, Bay C12-preferring acyl-ACP thioesterase (Umbellularia californica, UniProt Q41635).
T1 sequence (Q41635 84-382): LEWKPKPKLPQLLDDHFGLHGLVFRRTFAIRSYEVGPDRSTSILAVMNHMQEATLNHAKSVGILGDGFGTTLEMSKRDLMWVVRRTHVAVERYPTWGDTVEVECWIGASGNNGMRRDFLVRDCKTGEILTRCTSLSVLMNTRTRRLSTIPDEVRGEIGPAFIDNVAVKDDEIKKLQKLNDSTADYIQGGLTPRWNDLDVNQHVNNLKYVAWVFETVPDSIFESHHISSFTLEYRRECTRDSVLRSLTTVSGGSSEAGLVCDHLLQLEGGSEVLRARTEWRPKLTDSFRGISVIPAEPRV
Description: Substrate hydrolysis (ACP versus CoA) by peak gradient-eluted fraction of the ACP column. The data set is classed as biochemical. Further details: The cotyledons from such seeds are dissected from the other seed parts and stored frozen at -70°; This comprises the source tissue for enzyme extraction; from tissue; host or cells: immature seed cotyledons of Umbellularia californica. Particulars: cpm of ether-extractable product. As to the method:
as §1, §2

For lauroyl-ACP [12:0-ACP], the “Activity on Substrate” value in data set [1] amounted to 300 cpm; in data set [3], 2772 cpm. Further, the figures for the “Hydrolysis / Thioesterase Activity In Assays” value in data set [2] (Normal Seeds (2g/cotyledon pair)) and in data set [2] (Young Seeds (0.5g/cotyledon pair)) were 4704 cpm and 376 cpm, respectively.
